This is an account of results in patent publication US20120214744A1 (L UNIVERSITE PARIS DESCARTES, published 2012).

The target in test [1] is gD-tagged wild-type ErbB2 (human) (UniProt P04626). Nature of the test: cell-based or functional assay.
The target in test [2] is T1, gD-tagged wild-type ErbB2 (human, UniProt P04626 23-1255).
T1 construct: whole, on cells; Expressed in HBMECs (human endothelial cells); also called gD-ErbB2-WT; gD-ErbB2 WT
Put plainly: GST pull-down from HBMEC lysates, anti-gD western blot.
Procedure: (§1) Clarified lysates were incubated with GST fusion proteins (20-30 mg) bound to glutathione-Sepharose beads for 2 h at 4° C. Beads were washed three times with lysis buffer, and bound proteins were eluted in Laemmli sample buffer and separated by SDS-PAGE for analysis by western blotting.

In test [3] the target is T2, endogenous EGFR (human, UniProt P00533 25-1210).
T2 construct: whole, on cells; Endogenous receptor of HBMECs, from lysates; also called endogenous EGF receptors
Nature of the test: GST pull-down from HBMEC lysates.
Procedure: as §1

“And” between values parts separate entries of the source, which are not always exact repeats. Equal entries are not always repeated.

With “VSV-g-tagged ezrin FERM domain (from UniProt P15311 1-295)”, the ErbB2-induced cell proliferation of HBMECs in test [1] is 85 % reduction and 70 % reduction.

B1: GST fused with the carboxy-terminal domain of ezrin (other)
chain: REEKHQKQLERQQLETEKKRRETVEREKEQMMREKEELMLRLQDYEEKTKKAERELSEQIQRALQLEEERKRAQEEAERLEADRMAALRAKEELERQAVDQIKSQEQLAAELAEYTAKIALLEEARRRKEDEVEEWQHRAKEAQDDLVKTKEELHLVMTAPPPPPPPVYEPVSYHVQESLQDEGAEPTGYSAELSSEGIRDDRNEEKRITEAEKNERVQRQLLTLSSELSQARDENKRTHNDIIHNENMRQGRDKYKTLRQIRQGNTKQRIDEFEAL
notes: also called GST-Ezrin-CT; C-terminus of ezrin; not shown: glutathione S-transferase (GST) tag
For the molecule B1, the binding result in test [2] and in test [3] was “no binding” each time.
